# Data as given in the DeepSol protein solubility set.
# Test: soluble on expression in E. coli; label from the status in PepcDB or PDB records
row,Sequence,soluble on expression in E. coli
1,MFFSNSLHANAAPQHFERIAKILQAKRRAGDFSTCDVKIQLKTGFDMVHSVVICAHSDVFSETFDNQRAPYQPFNMTDFDPDSVRRVFDWMYSGEIDIPETTIADVLAVASYLRVTMLQRQIEQKILNHNGSPIMALNIASARAFSVMDHTMNDLVHGFTEKMTGLGIDEVAKLTANSMIAVMAAVLPMKKKVPLVNMFISWIVCKQPERETINTIIQSLVISDITYDTLYAIRYSLKQYLTNSEIASKSQLTISPSGTIEIKIVPKKESMVSEKSSSLHSVVELPPNQYYRTRSEISAIDKMPDPFVRNLPRTQSASSMIARPRSSGGFPQYFTRSEVEDLQQMTDPFSKSERGMTPTRGPPMGFSSVQCTVKYPGWSKDVMETNKEMYKQCKMNGRYILSEAQTESNAPVFLRPAVGGKVSSSRGALSNLSNSEQNKKYGRGVTQSFSGHSLNDNDPMPKEHDPKVQPSVIISCLSLPTTSPVSVVKPKMTGVKKTDSEIMEINALPSSFNSNSFYTAKTSNTSGHSNDQSAGKSEKSQRSQKSEKSQKLKKPIPQSQYLYPN,not soluble
2,MFGFSNSDISVSSGHTSHLDEVLPQSMYMVDADGRMVRWSPWFRDRIAGFSDAEMASTDFLELIHPEDRALVRQRMRKILDQGVQDSLEVRIFLKGGPAFRWFLLMANRYEYAGHYFITGTGIDIT,not soluble
3,MFHGIPATPGIGAPGNKPELYEEVKLYKNAREREKYDNMAELFAVVKTMQALEKAYIKDCVSPSEYTAACSRLLVQYKAAFRQVQGSEISSIDEFCRKFRLDCPLAMERIKEDRPITIKDDKGNLNRCIADVVSLFITVMDKLRLEIRAMDEIQPDLRELMETMHRMSHLPPDFEGRQTVSQWLQTLSGMSASDELDDSQVRQMLFDLESAYNAFNRFLHALEHHHHHH,not soluble
4,MFKDFFNRTKKKKYLTVQDSKNNDVPAGIMTKCPKCKKIMYTKELAENLNVCFNCDHHIALTAYKRIEAISDEGSFTEFDKGMTSANPLDFPSYLEKIEKDQQKTGLKEAVVTGTAQLDGMKFGVAVMDSRFRMGSMGSVIGEKICRIIDYCTENRLPFILFSASGGARMQEGIISLMQMGKTSVSLKRHSDAGLLYISYLTHPTTGGVSASFASVGDINLSEPKALIGFAGRRVIEQTINEKLPDDFQTAEFLLEHGQLDKVVHRNDMRQTLSEILKIHQEVTK,soluble
5,MFKKVLGLRHWNNNVVKIPPPAAESGANASDVVVDTPEPYERILCQKILMGISTIDIIRNAIIKSCEQLNIEKERINELNEQNDKARSSLKSLVEFITEIGTTSSDIGCRMGDLNTSLTQINACIKEIQKIANQTNLIAINSAIEAARVGDAGRGFSVISKEVKNLSEDVKHSSKSVSTLTSVIKDNTARVSEVLDNQQPVIDNITTNINQIVESIGIVIDKSLSMKSVMQYISTVQFLNIVKVDHVIWKMEVYKLLLNKDINSKITMHDQCRLGKWYYGFEGQQFSNYYSFRSLEAPHKEVHTAGHSALNYFAAGDMNAMSQELDRMERSSNEVVNQLEMLAVDLLKETTL,not soluble
6,MFKNEDAKATGTSEMAPALVAAFGGKENITNLDACITRLRVSVADVSKVDQAGLKKLGAAGVVVAGSGVQAIFGTKSDNLKTEMDEYIRNFGSRSHHHHHH,soluble
7,MFLNGNCLETLKKKEPEGGRRRLSHPGNMGWMRPSQETTPPDRSHHSGFGLFCGDPGPEIEPFSLWVFPQEMVLEIHQLFMDHEYPCHHITSHCTWVAAHWTTSQSCAAWQGCRRACCSTWWKSPAQCTRPTVMSATFETAQEPGPS,not soluble
8,MFLYTETDQNLQACIDACNHCYRTCLRMAMNHCLEAGGKHVEADHLRLMMNCAEICQTSLNFMLSGSRFSPKVCGVCAEICDACAKSCEQLDGMEECVQTCRQCAEHCRKMAALEHHHHHH,soluble
9,MFMEFSAGLMPLETALTQMLSRITPLTAVETLPLVNCFGRILATDIVSPLDVPGFDNSAMDGYAVRVADLSADKPLPVAGKAFAGQPYQGEWPAGTCIRIMTGAPVPAGCEAVVMQEQTEQTDDGVRFTADVRCGQNIRRRGEDIRQDAVVFPAGTRLTTAELPVLASLGIADAQVVRKVRVALFSTGDELQLPGQPLEAGQIYDTNRLTIHLMLQQLGCEVINLGIIPDDPGKLRAAFIDADSQADVVISSGGVSVGEADYTKTILEELGEIAFWKLAIKPGKPFAFGKLSNSWFCGLPGNPVSAALTFYQLVQPLLAKLGGNTASAVPPRQRVRTASRLKKTPGRLDFQRGILQRSANGELEVTTTGHQGSHIFSSFSLGNCFIVLERERGNVEPGEWVEVEPFNALFGGL,not soluble
10,MFNALLLTQQDKITHATVTQINDDQLPAGNVTVAVNYSSLNYKDGLAITGKGKIIREFPMVPGIDFAGTVLESADARYQVGDAVVLTGWGVGENHWGGMAQKARLNADWLVKLPQGLTSQQAMMIGTAGFTAMLCVQALIDGGIKPEDGEILVTGASGGVGSVAVTLLAQLGYKVVAVTGRVAQNGPLLEQLGASRVIDRQEFSEASRPLEKQLWVGAVDTVGSKVLAKVLAQMHYNGVVAACGLAGGFDLPTTVMPFILRNVRLQGVDSVSCPVEKRLAAWKKLAELLPASYYAQACHEISLSQVPEYAEAITNGQVTGRVVVKL,not soluble
11,MFNLKREHFRDDYLYRFYQYGDTHSKIPSNLYKVLARKLDMISASENINDLRSPPANHLELLEPKENKIYSIRVNKQYCLIFKYENNEVNNLYLDPHSYNL,not soluble
12,MFNQTQTVTYPATFLGAKKFKGEIDGSNIDTCSVLVATPLPAQSGNAVGFTAAQMKFGDSKNFSKLENLKYPCEVMVTVEMTSTGKGMVPSLIDFQVAEKPKG,not soluble
13,MFPRALAIGTPAQHKATEAPVTSTSASGLARFNTLEETAALAELHEACAATAWARHLLAARPFATAEDLYAASDAAMAELSAEDLAEAMAGHPPIGRPKPGDATSSREQAGMAGAAEELKAEMLELNLAYQDKFGHVFLICATGRTGEQMRDAALERIGNSPEQEREIVRTELGKINRIRLTRLVEQDARPAAALEHHHHHH,soluble
14,MFQLLAVCPMGLEAVVAREIQELGYETNVENGRIFFEGDASAIVKANLWLRTADRIKIVVGRFNATTFDELFEQTKALPWESIIDKEGNFPVQGRSVKSTLHSVPDCQAITKKAIVERLRRAYNEKGWLNESGAKYPVEVAILKDNVLLTIDTSGSGLNRRGYRLAQGEAPIKETLAASLIRLANWKGDTPLIDPFCGSGTIAIEACLIAQNIAPGFNREFVSEQWNIMPANIYDDYRDEADKMADYDKEIEVYASDIDPEMVEIAKRNAEEVGLSDIIKFSVKDVNTLTIDTEEPVALIGNPPYGERIGDREEVEEMYRYIGKLMKQHPFLSTYILTSNKEFEYLVNRKATKRRKLFNGYIECTYYQYWGKKTERKTIEN,not soluble
15,MFQVKVRGCMTVYPKVQCISYKIDVDKPTVCELTLCLAPNSDVPADRFSNDLFLVVYNNEQKLVGLTRHVLEERKYSTGMMTVNEGDEVMIVGMGTTTNRKRSTTERVPLIEETNKLSKRFK,not soluble
16,MFQVPDSEGGRAGSRAMKPPGGESSNLFGSPEEATPSSRPNRMASNIFGPTEEPQNIPKRTNPPGGKGSGIFDESTPVQTRQHLNPPGGKTSDIFGSPVTATSRLAHPNKPKDHVFLCEGEEPKSDLK,not soluble
17,MFRAAAPGQLRRAASLLRFQSTLVIAEHANDSLAPITLNTITAATRLGGEVSCLVAGTKCDKVAQDLCKVAGIAKVLVAQHDVYKGLLPEELTPLILATQKQFNYTHICAGASAFGKNLLPRVAAKLEVAPISDIIAIKSPDTFVRTIYAGNALCTVKCDEKVKVFSVRGTSFDAAATSGGSASSEKASSTSPVEISEWLDQKLTKSDRPELTGAKVVVSGGRGLKSGENFKLLYDLADQLHAAVGASRAAVDAGFVPNDMQVGQTGKIVAPELYIAVGISGAIQHLAGMKDSKTIVAINKDPEAPIFQVADYGIVADLFKVVPEMTEILKKK,soluble
18,MFRSSFCKNLENATSHLRLEPDWPSILLICDEINQKDVTPKNAFAAIKKKMNSPNPHSSCYSLLVLESIVKNCGAPVHEEVFTKENCEMFSSFLESTPHENVRQKMLELVQTWAYAFRSSDKYQAIKDTMTILKAKGHTFPELREADAMFTADTAPNWADGRVCHRCRVEFTFTNRKHHCRNCGQVFCGQCTAKQCPLPKYGIEKEVRVCDGCFAALQRG,soluble
19,MFRSSLTHLQAVSRVFIMGGHITPFVGKGSKLFIDKKHPDFGKKQNMTLEEILATTVQHTIENTGLNGKEDIVDQVVVGNFLGELFSSQGHLGPAAIGSLTYGQAGAKNPLMYKPAMRVEGACASGGLAVVSATNALKAGSADIALAVGVEVQTTATARVGGDYLARAADYQRQRKLDDFTFPCLFAKRMKYIAEHNHFTMEDTARVAAKAYANGNRNPLAHMHTRKLSFEQCNGEDPSNVKFLGNETYKEYLRMTDCSQVSDGGAGVVLANEEGLKKMGLSPNDSRLVEIKSIACAVSNLYEDPDDACCMFTSRQAAQKALSMANVKPSDLNVAEVHDCFTIAEMLMYEALGIAEYGHAKDLIRNGETTLEGRIPVNTGGGLLSFGHPVGATGIKQVMEVYRQMKGQCGAYQMKKIPALGATLNMGGDDKTAVSAVLQNI,not soluble
20,MFSDTDISMMENALRLAALGRFSTSPNPRVGCVIAHGSQIVGQGFHVKAGEPHAEVHALRQAGEMAQGATAFVTLEPCSHYGRTPPCAEALVRAGVSRVVAAMRDPNPLVAGKGLALLEAAGIKTECGLLEHQARELNRGFLSRIERRRPFVRLKCAVSLDGKTALSDGSSFWITGEDARADVQVLRAESCAVLTGIGTVLADNPRLNVRAFPTLRQPARIVLDSRLRLPPNSHLVTDGQSPTYIATLERNEDRLHPYREHAHVRILMPSETADSKIDLHHLMRLLADEGFGEIMVEAGSELTSAFLAENLADEIVLYRSPKILGSGKDLFSLLENRAALSAPPLWTPVSSEILGHNIKTVFRKNGNAF,soluble
21,MFSIIIPIYNSENYLRYSIESVLNQSIGFKENIELILIDDGSVDSSPQICESFKNLYPNNIKIMKIENSGPSAARNCGLSNVSERSKFIGFLDSDDAFSQNALQSVYDFFCDSEHVNIAVLPVYYTGEKEGGHKLNNRFEKGTRVINILNDYKAIHFYIGGTFYRRHTLTSTVLFDESIKFWEDAIFFNQLLLKEKRYGAVAEGKYFYRKRKEQDSLVDRSWFNKKRYTYLLNECYMTLLMDSFNKYDIVLPYLQFLIVYHIKLFLYPNYRDVYKSVLDQQEQRVFVDDFIKVLKFIDPQFIKEQDMPMYYKEFMFHLLKENTEALENIKKERVLHSSCTVTSAKIKGLRLELTGHFINQYYEMKENDRIYIKYFKRLKKCKRKELKKTIEVWGYKLRDFRYAGFVVEIPIWAFAFDFVLKTPNDSLELNHVNIFKSLLTRVFKKRLEHHHHHH,soluble
22,MFSKLAHLQRFAVLSRGVHSSVASATSVATKKTVQGPPTSDDIFEREYKYGAHNYHPLPVALERGKGIYLWDVEGRKYFDFLSSISAVNQGHCHPKIVNALKSQVDKLTLTSRAFYNNVLGEYEEYITKLFNYHKVLPMNTGVEAGETACKLARKWGYTVKGIQKYKAKIVFAAGNFWGRTLSAISSSTDPTSYDGFGPFMPGFDIIPYNDLPALERALQDPNVAAFMVEPIQGEAGVVVPDPGYLMGVRELCTRHQVLFIADEIQTGLARTGRWLAVDYENVRPDIVLLGKALSGGLYPVSAVLCDDDIMLTIKPGEHGSTYGGNPLGCRVAIAALEVLEEENLAENADKLGIILRNELMKLPSDVVTAVRGKGLLNAIVIKETKDWDAWKVCLRLRDNGLLAKPTHGDIIRFAPPLVIKEDELRESIEIINKTILSF,soluble
23,MFSRGASTMQSRELREQLLGCVKSRKSLHVTGPPGSGKSTFVSRLAEALRVKGCRLGGFMAPEVRRGGRRVAFKIVDIASGEEGYLAVADESLAAPGGRRARHGRYLVLVDEAWRVMSHAIRNAFEHADIIIVDEIGPMELAVPGFREALTEILDSGKPLVTVFHRRLRTLDPGLYKLLERGCIVWLDERNRGPLIRLVSEIASALSNEACGNSLEHHHHHH,not soluble
